This series addresses PD-L1 (recombinant human) (Homo sapiens, UniProt Q9NZQ7 19-238). Nature of the series: ELONA; 1:1 hyperbolic fit; ELONA: PD-L1 coated in PBS at 4 C overnight; blocked with PBS, 0.1% Tween 20, 1% BSA; wash PBS, 1 mM MgCl2, 0.1% Tween 20, 0.1% BSA; oligo heated 95 C 10 min then on ice 10 min; binding 45 min at room temperature; pH not stated. The settings on record: protein: recombinant; label: biotin (ELONA).

Usually Kd stands for the concentration at which binding is half-saturated.

PD-L1 (recombinant human), sequence (Q9NZQ7 19-238): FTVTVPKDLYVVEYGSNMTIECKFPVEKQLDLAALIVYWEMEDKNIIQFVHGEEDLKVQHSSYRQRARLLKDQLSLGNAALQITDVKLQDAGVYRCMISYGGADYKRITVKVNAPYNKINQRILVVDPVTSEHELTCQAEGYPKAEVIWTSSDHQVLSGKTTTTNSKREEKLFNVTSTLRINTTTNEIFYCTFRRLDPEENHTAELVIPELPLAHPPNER

B1: PD-L1 aptamer (structured_DNA)
DNA: ACCGACCGTGCTGGACTCATCTCGCTTTTTTCACGGTCCACACTACTATGAGCGAGCCTGGCG
B1: the equilibrium dissociation constant (Kd) was 108 nM.

Values taken from paper PMC12708450, “Targeting tumor-infiltrating regulatory T cells: combining CD47 and PD-L1 inhibition via a novel aptamer-siRNA chimera”.
